Laboratory results published in article doi:10.1101/2024.05.14.591795.

Molecular target: BCG3185c (Mycobacterium tuberculosis (title); called a Bacillus Calmette-Guérin (BCG) protein)
Test: SEC

## BCG3185c (enzyme)
  stoichiometry N: 3
